Experimental data taken from publication PMC2627783 (Biochemistry, 2008).

Target: T1, HscA (UniProt P0A6Z1 1-616)
T1 sequence (looked up): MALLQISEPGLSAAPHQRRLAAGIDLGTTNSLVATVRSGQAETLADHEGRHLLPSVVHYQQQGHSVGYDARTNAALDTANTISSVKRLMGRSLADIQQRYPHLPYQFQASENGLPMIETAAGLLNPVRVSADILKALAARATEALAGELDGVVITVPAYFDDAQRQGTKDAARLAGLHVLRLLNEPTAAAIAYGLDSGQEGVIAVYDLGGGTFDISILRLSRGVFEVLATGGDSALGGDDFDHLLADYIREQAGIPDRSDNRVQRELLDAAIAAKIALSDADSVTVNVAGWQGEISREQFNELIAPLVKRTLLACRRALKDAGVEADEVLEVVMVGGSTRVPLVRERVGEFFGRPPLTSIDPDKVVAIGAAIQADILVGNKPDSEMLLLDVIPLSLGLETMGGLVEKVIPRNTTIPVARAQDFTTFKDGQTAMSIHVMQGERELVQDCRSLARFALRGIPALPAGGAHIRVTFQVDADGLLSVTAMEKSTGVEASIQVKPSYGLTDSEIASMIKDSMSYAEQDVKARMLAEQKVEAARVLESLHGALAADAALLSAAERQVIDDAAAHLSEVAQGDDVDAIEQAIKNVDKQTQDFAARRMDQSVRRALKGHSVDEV
Experiment: cell-based or functional assay

B1: HscB (wild type) (natural protein, E. coli, UniProt P0A6L9 1-171, looked up)
chain: MDYFTLFGLPARYQLDTQALSLRFQDLQRQYHPDKFASGSQAEQLAAVQQSATINQAWQTLRHPLMRAEYLLSLHGFDLASEQHTVRDTAFLMEQLELREELDEIEQAKDEARLESFIKRVKKMFDTRHQLMVEQLDNETWDAAADTVRKLRFLDKLRSSAEQLEEKLLDF
With B1 the “HscA ATPase activity, 23 °C, in the absence of IscU: maximal stimulation” value was 4.4 fold.
